Source: PMC2533787 (The Journal of Biological Chemistry, 2008)

Key:
[1] = biological target: Full-length recombinant human TSG-6 (human, UniProt P98066 18-277); test: SPR
[2] = biological target: CUB_C_TSG6 (the CUB domain and C-terminal 27 amino acids of human TSG-6) (human, UniProt P98066 129-277); test: SPR
CUB_C_TSG6 (the CUB domain and C-terminal 27 amino acids of human TSG-6), sequence (P98066 129-277): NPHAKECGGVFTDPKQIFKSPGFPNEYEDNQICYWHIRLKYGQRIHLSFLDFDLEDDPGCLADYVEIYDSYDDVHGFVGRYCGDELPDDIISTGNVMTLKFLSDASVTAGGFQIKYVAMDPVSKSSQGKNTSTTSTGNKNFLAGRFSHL

Full-length recombinant human TSG-6, sequence (P98066 18-277): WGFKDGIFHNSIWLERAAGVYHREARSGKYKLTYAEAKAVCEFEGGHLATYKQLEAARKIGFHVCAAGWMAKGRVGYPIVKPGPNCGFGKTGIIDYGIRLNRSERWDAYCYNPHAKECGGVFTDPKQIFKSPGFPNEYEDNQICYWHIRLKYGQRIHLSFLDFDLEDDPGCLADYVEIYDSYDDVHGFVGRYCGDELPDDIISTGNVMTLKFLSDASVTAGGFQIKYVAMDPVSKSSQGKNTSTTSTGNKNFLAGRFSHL

Kd [1] [µM]	Kd [2] [µM]	Binder
0.22	2.54	bone morphogenetic protein-2 (ligand, UniProt P12643 283-396, looked up) QAKHKQRKRLKSSCKRHPLYVDFSDVGWNDWIVAPPGYHAFYCHGECPFPLADHLNSTNHAIVQTLVNSVNSKIPKACCVPTELSAISMLYLDENEKVVLKNYQDMVVEGCGCR
0.236	6.88	BMP-13 (ligand, UniProt Q6KF10 336-455, looked up) TAFASRHGKRHGKKSRLRCSKKPLHVNFKELGWDDWIIAPLEYEAYHCEGVCDFPLRSHLEPTNHAIIQTLMNSMDPGSTPPSCCVPTKLTPISILYIDAGNNVVYKQYEDMVVESCGCR
0.184	10.8	BMP-14 (ligand, UniProt P43026 382-501, looked up) APLATRQGKRPSKNLKARCSRKALHVNFKDMGWDDWIIAPLEYEAFHCEGLCEFPLRSHLEPTNHAVIQTLMNSMDPESTPPTCCVPTRLSPISILFIDSANNVVYKQYEDMVVESCGCR
1.97		soluble receptor activator of NF-κB ligand (ligand, UniProt O14788 140-317, looked up) IRAEKAMVDGSWLDLAKRSKLEAQPFAHLTINATDIPSGSHKVSLSSWYHDRGWAKISNMTFSNGKLIVNQDGFYYLYANICFRHHETSGDLATEYLQLMVYVTKTSIKIPSSHTLMKGGSTKYWSGNSEFHFYSINVGGFFKLRSGEEISIEVSNPSLLDPDQDATYFGAFKVRDID
